The subject of series [1] is HeLa Kyoto. In words: solubility change mitosis vs G1/S (difference of NP-40 vs SDS log2 ratios) (log2 ratio difference); higher = more soluble in mitosis.
Series [2] has as its system HeLa Kyoto. In words: melting temperature (median over replicates), in situ; higher = more thermally stable.
Series [3] relates to HeLa Kyoto. In words: thermal stability score vs G1/S (z-score of summed log2 fold changes over temperatures); higher = more thermally stable than in G1/S.
The test system of series [4] is HeLa Kyoto. In words: solubility in G1/S (NP-40 vs SDS abundance) (log2 ratio); higher = more soluble. As to conditions: cell cycle stage: G1/S.
The mark [5] stands for this setting: cell cycle stage: early G1 (4.5 h after nocodazole release).
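For melting temperature (median over replicates), in situ in this document: HeLa Kyoto cells synchronized by double thymidine or nocodazole block, proteins quantified by TMT10plex mass spectrometry, three independent biological replicates.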
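For solubility change mitosis vs G1/S (difference of NP-40 vs SDS log2 ratios) in this document: synchronized HeLa Kyoto cells (double thymidine block for G1/S, nocodazole release for mitosis), protein amounts in NP-40 versus SDS lysates quantified by mass spectrometry, three biological replicates.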
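For solubility in G1/S (NP-40 vs SDS abundance) in this document: HeLa Kyoto cells arrested at G1/S by double thymidine block, proteins quantified by TMT10plex mass spectrometry in mild NP-40 versus SDS extracts, three biological replicates.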
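For thermal stability score vs G1/S (z-score of summed log2 fold changes over temperatures) in this document: synchronized HeLa Kyoto cells, proteins quantified by TMT10plex mass spectrometry, three biological replicates, mitosis taken 0.5 h after nocodazole release, G1/S directly after double thymidine block.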

Chain of MARK2 (chain, as listed by the source): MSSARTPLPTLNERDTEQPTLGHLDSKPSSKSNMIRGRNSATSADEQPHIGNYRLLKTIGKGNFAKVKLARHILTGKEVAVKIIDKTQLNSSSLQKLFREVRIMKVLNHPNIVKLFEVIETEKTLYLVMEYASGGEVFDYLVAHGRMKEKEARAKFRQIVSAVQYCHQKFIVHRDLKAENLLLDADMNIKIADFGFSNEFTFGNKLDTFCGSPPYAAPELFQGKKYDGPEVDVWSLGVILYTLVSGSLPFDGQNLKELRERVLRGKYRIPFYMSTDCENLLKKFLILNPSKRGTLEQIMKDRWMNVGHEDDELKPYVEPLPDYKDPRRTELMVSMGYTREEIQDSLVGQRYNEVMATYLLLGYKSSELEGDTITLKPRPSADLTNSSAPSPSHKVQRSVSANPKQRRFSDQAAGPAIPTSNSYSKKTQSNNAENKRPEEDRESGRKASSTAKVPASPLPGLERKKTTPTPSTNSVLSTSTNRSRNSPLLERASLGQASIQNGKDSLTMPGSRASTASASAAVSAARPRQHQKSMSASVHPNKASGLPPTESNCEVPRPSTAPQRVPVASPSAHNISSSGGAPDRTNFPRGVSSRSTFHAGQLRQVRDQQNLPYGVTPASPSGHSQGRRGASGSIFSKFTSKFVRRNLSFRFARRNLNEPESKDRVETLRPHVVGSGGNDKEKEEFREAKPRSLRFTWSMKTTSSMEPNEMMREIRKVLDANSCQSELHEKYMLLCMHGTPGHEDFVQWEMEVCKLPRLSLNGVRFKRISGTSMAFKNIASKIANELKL

For the substance MARK2, in the series with HeLa Kyoto [1], the “solubility change mitosis (log2)” value was 0.0431. The results for the melting temperature in the series on HeLa Kyoto [2] (cell cycle stage: G1/S) and with HeLa Kyoto [2] (cell cycle stage: mitosis) were 49.6 °C and 48.7 °C, respectively. Further, the thermal stability score came out at 0.513 with HeLa Kyoto [3] (setting [5]) and 0.569 in the series on HeLa Kyoto [3] (cell cycle stage: mitosis). For the same substance, in the series on HeLa Kyoto [4], the “solubility in G1/S (log2)” value was -0.0826.

“MARKRAAGGEPRGRELRSQKSKAKSKARREEEEEDAFEDEKPPKKSLLSKVSQGKRKRGCSHPGGSADGPAKKKVAKVTVKSENLKVIKDEALSDGDDLRDFPSDLKKAHHLKRGATMNEDSNEEEEESENDWEEVEELSEPVLGDVRESTAFSRSLLPVKPVEIEIETPEQAKTRERSEKIKLEFETYLRRAMKRFNKGVHEDTHKVHLLCLLANGFYRNNICSQPDLHAIGLSIIPARFTRVLPRDVDTYYLSNLVKWFIGTFTVNAELSASEQDNLQTTLERRFAIYSARDDEELVHIFLLILRALQLLTRLVLSLQPIPLKSATAKGKKPSKERLTADPGGSSETSSQVLENHTKPKTSKGTKQEETFAKGTCRPSAKGKRNKGGRKKRSKPSSSEEDEGPGDKQEKATQRRPHGRERRVASRVSYKEESGSDEAGSGSDFELSSGEASDPSDEDSEPGPPKQRKAPAPQRTKAGSKSASRTHRGSHRKDPSLPAASSSSSSSKRGKKMCSDGEKAEKRSIAGIDQWLEVFCEQEEKWVCVDCVHGVVGQPLTCYKYATKPMTYVVGIDSDGWVRDVTQRYDPVWMTVTRKCRVDAEWWAETLRPYQSPFMDREKKEDLEFQAKHMDQPLPTAIGLYKNHPLYALKRHLLKYEAIYPETAAILGYCRGEAVYSRDCVHTLHSRDTWLKKARVVRLGEVPYKMVKGFSNRARKARLAEPQLREENDLGLFGYWQTEEYQPPVAVDGKVPRNEFGNVYLFLPSMMPIGCVQLNLPNLHRVARKLDIDCVQAITGFDFHGGYSHPVTDGYIVCEEFKDVLLTAWENEQAVIERKEKEKKEKRALGNWKLLAKGLLIRERLKRRYGPKSEAAAPHTDAGGGLSSDEEEGTSSQAEAARILAASWPQNREDEEKQKLKGGPKKTKREKKAAASHLFPFEQL [XPC]”: the “solubility change mitosis (log2)” value in the series with HeLa Kyoto [1] is 0.43. Further, the melting temperature worked out at 47.7 °C in the series with HeLa Kyoto [2] (cell cycle stage: G1/S) and 48.4 °C in the series with HeLa Kyoto [2] (cell cycle stage: mitosis). Moreover, the thermal stability score in the series on HeLa Kyoto [3] (setting [5]) was determined as 0.959; in the series on HeLa Kyoto [3] (cell cycle stage: mitosis), 2.74. Also, the “solubility in G1/S (log2)” value in the series with HeLa Kyoto [4] is -0.919.

Turning to “MARPLVPSSQKALLLELKGLQEEPVEGFRVTLVDEGDLYNWEVAIFGPPNTYYEGGYFKARLKFPIDYPYSPPAFRFLTKMWHPNIYETGDVCISILHPPVDDPQSGELPSERWNPTQNVRTILLSVISLLNEPNTFSPANVDASVMYRKWKESKGKDREYTDIIRKQVLGTKVDAERDGVKVPTTLAEYCVKTKAPAPDEGSDLFYDDYYEDGEVEEEADSCFGDDEDDSGTEES [CDC34]”, the “solubility change mitosis (log2)” value in the series on HeLa Kyoto [1] was -0.0905. Also, the melting temperature amounted to 48.8 °C in the series on HeLa Kyoto [2] (cell cycle stage: G1/S) and 49.1 °C with HeLa Kyoto [2] (cell cycle stage: mitosis). The thermal stability score amounted to 0.555 in the series on HeLa Kyoto [3] (setting [5]) and 2.54 in the series on HeLa Kyoto [3] (cell cycle stage: mitosis). The “solubility in G1/S (log2)” value with HeLa Kyoto [4] is 0.3.

As for “MARVLKAAAANAVGLFSRLQAPIPTVRASSTSQPLDQVTGSVWNLGRLNHVAIAVPDLEKAAAFYKNILGAQVSEAVPLPEHGVSVVFVNLGNTKMELLHPLGRDSPIAGFLQKNKAGGMHHICIEVDNINAAVMDLKKKKIRSLSEEVKIGAHGKPVIFLHPKDCGGVLVELEQA [MCEE]”, the “solubility change mitosis (log2)” value in the series with HeLa Kyoto [1] is 0.128. Besides, the melting temperature came to 57.8 °C with HeLa Kyoto [2] (cell cycle stage: G1/S) and 56.1 °C in the series with HeLa Kyoto [2] (cell cycle stage: mitosis). Further, the thermal stability score is -0.379 with HeLa Kyoto [3] (setting [5]) and -2.18 in the series on HeLa Kyoto [3] (cell cycle stage: mitosis). Also, the “solubility in G1/S (log2)” value with HeLa Kyoto [4] was 0.471.

On to “MASAGDTQAGPRDAADQNFDYMFKLLLIGNSSVGKTSFLFRYADDSFTPAFVSTVGIDFKVKTVYRHDKRIKLQIWDTAGQERYRTITTAYYRGAMGFLLMYDIANQESFAAVQDWATQIKTYSWDNAQVILVGNKCDLEDERVVPAEDGRRLADDLGFEFFEASAKENINVKQVFERLVDVICEKMNESLEPSSSSGSNGKGPAVGDAPAPQPSSCSC [RAB3D]”, for which, in the series with HeLa Kyoto [1], the “solubility change mitosis (log2)” value was -0.109. Besides, the figures for the melting temperature in the series on HeLa Kyoto [2] (cell cycle stage: G1/S) and in the series on HeLa Kyoto [2] (cell cycle stage: mitosis) were 57.2 °C and 57.6 °C, respectively. Also, the thermal stability score with HeLa Kyoto [3] (setting [5]) is -1.66; with HeLa Kyoto [3] (cell cycle stage: mitosis), -1.58. For the same substance, in the series on HeLa Kyoto [4], the “solubility in G1/S (log2)” value stood at 0.0512.

With “MASASGAMAKHEQILVLDPPTDLKFKGPFTDVVTTNLKLRNPSDRKVCFKVKTTAPRRYCVRPNSGIIDPGSTVTVSVMLQPFDYDPNEKSKHKFMVQTIFAPPNTSDMEAVWKEAKPDELMDSKLRCVFEMPNENDKLNDMEPSKAVPLNASKQDGPMPKPHSVSLNDTETRKLMEECKRLQGEMMKLSEENRHLRDEGLRLRKVAHSDKPGSTSTASFRDNVTSPLPSLLVVIAAIFIGFFLGKFIL [VAPA]”, the “solubility change mitosis (log2)” value with HeLa Kyoto [1] came to 0.0815. The melting temperature came out at 54.1 °C in the series with HeLa Kyoto [2] (cell cycle stage: G1/S) and 54.5 °C in the series on HeLa Kyoto [2] (cell cycle stage: mitosis). For the same substance, the thermal stability score was -1.27 with HeLa Kyoto [3] (setting [5]) and -1.24 in the series with HeLa Kyoto [3] (cell cycle stage: mitosis). Also, the “solubility in G1/S (log2)” value in the series on HeLa Kyoto [4] was determined as 0.735.

As for “MASASTSKYNSHSLENESIKRTSRDGVNRDLTEAVPRLPGETLITDKEVIYICPFNGPIKGRVYITNYRLYLRSLETDSSLILDVPLGVISRIEKMGGATSRGENSYGLDITCKDMRNLRFALKQEGHSRRDMFEILTRYAFPLAHSLPLFAFLNEEKFNVDGWTVYNPVEEYRRQGLPNHHWRITFINKCYELCDTYPALLVVPYRASDDDLRRVATFRSRNRIPVLSWIHPENKTVIVRCSQPLVGMSGKRNKDDEKYLDVIRETNKQISKLTIYDARPSVNAVANKATGGGYESDDAYHNAELFFLDIHNIHVMRESLKKVKDIVYPNVEESHWLSSLESTHWLEHIKLVLTGAIQVADKVSSGKSSVLVHCSDGWDRTAQLTSLAMLMLDSFYRSIEGFEILVQKEWISFGHKFASRIGHGDKNHTDADRSPIFLQFIDCVWQMSKQFPTAFEFNEQFLIIILDHLYSCRFGTFLFNCESARERQKVTERTVSLWSLINSNKEKFKNPFYTKEINRVLYPVASMRHLELWVNYYIRWNPRIKQQQPNPVEQRYMELLALRDEYIKRLEELQLANSAKLSDPPTSPSSPSQMMPHVQTHF [MTM1]”, the “solubility change mitosis (log2)” value in the series on HeLa Kyoto [1] worked out at 0.0496. Moreover, the melting temperature is 55.2 °C in the series on HeLa Kyoto [2] (cell cycle stage: G1/S) and 54 °C in the series with HeLa Kyoto [2] (cell cycle stage: mitosis). In addition, the thermal stability score in the series with HeLa Kyoto [3] (setting [5]) was -1.72; with HeLa Kyoto [3] (cell cycle stage: mitosis), -2.37. In the series with HeLa Kyoto [4], the “solubility in G1/S (log2)” value was -0.0766.

The values above are taken from the supplement of paper PMC5998384.
